Results published in US20120178701A1 (PALATIN TECHNOLOGIES, published 2012).
Bridge positions count the residues as written; N and C are the ends. Square brackets hold non-standard residues; d marks the D form. Aad = N[C@@H](CCCC(=O)O)C(=O)O; Orn = NCCC[C@H](N)C(=O)O; Dab = NCC[C@H](N)C(=O)O

Columns and labels:
[1] = molecular target: T1, human recombinant melanocortin-1 receptor (human, UniProt Q01726 1-317); assay: competitive inhibition of labelled NDP-α-MSH, hMC1-R membranes
T1 construct: whole, on cells; membrane homogenates of HEK-293 cells; also called hMC1-R
T1 sequence (Q01726 whole entry): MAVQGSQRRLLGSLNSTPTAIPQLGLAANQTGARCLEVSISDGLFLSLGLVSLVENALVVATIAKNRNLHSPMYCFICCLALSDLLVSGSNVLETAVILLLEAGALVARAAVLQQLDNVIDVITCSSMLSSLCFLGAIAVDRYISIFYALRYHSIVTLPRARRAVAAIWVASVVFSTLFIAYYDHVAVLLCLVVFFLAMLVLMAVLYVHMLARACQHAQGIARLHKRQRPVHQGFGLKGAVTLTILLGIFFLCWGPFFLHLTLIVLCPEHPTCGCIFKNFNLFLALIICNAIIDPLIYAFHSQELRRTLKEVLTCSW
Method: (§1) A competitive inhibition binding assay is performed using membrane homogenates prepared from HEK-293 cells that express recombinant hMC4-R, hMC3-R, or hMC5-R, and from B-16 mouse melanoma cells (containing endogenous MC1-R). In some instances, HEK-293 cells that express recombinant hMC1-R were employed. In the examples that follow, all MC3-R, MC4-R and MC5-R values are for human recombinant receptors. […] Membrane homogenates were incubated with 0.2 nM (for hMC4-R) 0.4 nM (for MC3-R and MC5-R) or 0.1 nM (for mouse B16 MC1-R or hMC1-R) [I¹²⁵]-NDP-α-MSH (Perkin Elmer) and increasing concentrations of test peptides of the present invention in buffer containing 25 mM HEPES buffer (pH 7.5) with 100 mM NaCl, 2 mM CaCl₂, 2 mM MgCl₂, 0.3 mM 1,10-phenanthroline, and 0.2% bovine serum albumin. After incubation for 60 minutes at 37° C., the assay mixture was filtered and the membranes washed three times with ice-cold buffer. Filters were dried and counted in a gamma counter for bound radioactivity. […] Maximal specific binding (100%) was defined as the difference in radioactivity (cpm) bound to cell membranes in the absence and presence of 1 μM NDP-α-MSH. […] Each assay was conducted in triplicate and the actual mean values are described, with results less than 0% reported as 0%. Ki values for test peptides of the present invention were determined using Graph-Pad Prism® curve-fitting software.

[2] = molecular target: T1, human recombinant melanocortin-1 …; assay: cell-based or functional assay
[3] = molecular target: T2, human recombinant melanocortin-4 receptor (human, UniProt P32245 1-332); assay: cell-based or functional assay
T2 sequence (P32245 whole entry): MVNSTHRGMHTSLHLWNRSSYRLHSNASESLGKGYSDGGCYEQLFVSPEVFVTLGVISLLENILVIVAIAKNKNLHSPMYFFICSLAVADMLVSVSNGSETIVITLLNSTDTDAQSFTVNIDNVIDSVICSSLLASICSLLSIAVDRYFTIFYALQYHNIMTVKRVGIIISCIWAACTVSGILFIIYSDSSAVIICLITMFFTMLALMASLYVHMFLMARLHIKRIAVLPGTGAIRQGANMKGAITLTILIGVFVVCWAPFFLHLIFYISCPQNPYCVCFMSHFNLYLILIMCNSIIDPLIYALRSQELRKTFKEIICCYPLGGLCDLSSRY

[4] = molecular target: T2, human recombinant melanocortin-4 …; assay: ratio of Ki values, hMC1-R as reference
[5] = molecular target: T2, human recombinant melanocortin-4 …; assay: competitive inhibition of [I125]-NDP-α-MSH, hMC4-R HEK-293 membranes
Method: as §1
9.1 Peptides of the following structures were synthesized by the general methods described above, and averaged MC4-R Ki values for peptides were determined as indicated. […] Ki values marked “ND” were not determined.

[6] = molecular target: T2, human recombinant melanocortin-4 …; assay: competitive inhibition of labelled NDP-α-MSH, hMC4-R membranes
[7] = molecular target: T2, human recombinant melanocortin-4 …; assay: cell-based or functional assay; remark: listed apart in the source
[8] = molecular target: T3, endogenous MC1-R of B-16 mouse melanoma cells (mouse, UniProt Q01727 1-315); assay: competitive binding vs [I125]-NDP-α-MSH
T3 construct: whole, on cells; membrane homogenates; also called mouse B16 MC1-R
T3 sequence (Q01727 whole entry): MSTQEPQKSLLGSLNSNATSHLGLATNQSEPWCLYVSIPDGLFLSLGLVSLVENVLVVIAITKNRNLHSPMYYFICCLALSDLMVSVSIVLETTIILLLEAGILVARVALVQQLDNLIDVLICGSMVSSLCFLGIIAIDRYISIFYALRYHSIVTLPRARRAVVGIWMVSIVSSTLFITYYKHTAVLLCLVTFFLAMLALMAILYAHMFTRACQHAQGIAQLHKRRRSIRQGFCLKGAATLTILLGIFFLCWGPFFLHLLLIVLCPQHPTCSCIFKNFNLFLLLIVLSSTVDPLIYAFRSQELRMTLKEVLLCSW
Method: (§2) After incubation for 60 minutes at 37° C., the assay mixture was filtered and the membranes washed three times with ice-cold buffer. Filters were dried and counted in a gamma counter for bound radioactivity. […] Maximal specific binding (100%) was defined as the difference in radioactivity (cpm) bound to cell membranes in the absence and presence of 1 μM NDP-α-MSH. […] Each assay was conducted in triplicate and the actual mean values are described, with results less than 0% reported as 0%. Ki values for test peptides of the present invention were determined using Graph-Pad Prism® curve-fitting software.

[9] = molecular target: T3, endogenous MC1-R of B-16 mouse melanoma …; assay: competitive binding vs Eu-labeled NDP-α-MSH
[10] = molecular target: T4, human recombinant melanocortin-3 receptor (human, UniProt P41968 1-323); assay: competitive binding vs Eu-labeled NDP-α-MSH
T4 construct: whole, on cells; Membrane homogenates of HEK-293 cells expressing the receptor; also called hMC3-R; MC3-R
T4 sequence (P41968 whole entry): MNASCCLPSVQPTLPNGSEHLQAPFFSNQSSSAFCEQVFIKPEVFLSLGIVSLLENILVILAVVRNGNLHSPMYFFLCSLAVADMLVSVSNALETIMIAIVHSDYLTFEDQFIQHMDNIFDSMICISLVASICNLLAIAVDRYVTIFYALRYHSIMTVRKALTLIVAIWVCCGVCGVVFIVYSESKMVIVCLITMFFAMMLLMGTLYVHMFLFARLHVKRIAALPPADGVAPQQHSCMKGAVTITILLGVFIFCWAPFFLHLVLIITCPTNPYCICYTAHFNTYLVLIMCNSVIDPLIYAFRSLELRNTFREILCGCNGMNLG

[11] = molecular target: T4, human recombinant melanocortin-3 …; assay: competitive binding vs [I125]-NDP-α-MSH
Method: as §2

Ki [1] [nM]	hMC1-R EC50 [2] [nM]	hMC1-R Emax (%) [2] [%]	intrinsic activity (cAMP; NDP-α-MSH = 100%) [3] [%]	binding selectivity, MC4-R against MC1-R [4] [fold]	Ki [5] [nM]	Ki [6] [nM]	hMC4-R EC50 [7] [nM]	hMC4-R Emax (%) [7] [%]	Ki [8] [nM]	Ki [9] [nM]	Ki [10] [nM]	Ki [11] [nM]	EC50 (cAMP) [3] [nM]	Binder
688	25													Ac-R[Orn]N[dF]RWE-NH2 (lactam 2-7, also called peptide No. 154) [Ac-Arg-cyclo(Orn-Asn-D-Phe-Arg-Trp-Glu)-NH2]
840	80	81												Ac-[dR][Orn]N[dF]RWE-NH2 (lactam 2-7, also called peptide No. 156) [Ac-D-Arg-cyclo(Orn-Asn-D-Phe-Arg-Trp-Glu)-NH2]
			95											Ac-R[Dab]H[dF]RW[Aad]-NH2 (lactam 2-7) [Ac-Arg-cyclo(Dab-His-D-Phe-Arg-Trp-hGlu)-NH2]
133	26	98		≥ 20	4	4	0.825	99						RXQFRWX (N-acetyl; X2 = Dab; D-Phe 4; X7 = hGlu; side-chain lactam Dab2-hGlu7; C-terminal amide, also called peptide No. 159) [Ac-Arg-cyclo(Dab-Gln-D-Phe-Arg-Trp-hGlu)-NH2]
295					8	8	0.245	98						Ac-R[Aad]N[dF]RW[Dab]-NH2 (lactam 2-7, also called peptide No. 160) [Ac-Arg-cyclo(hGlu-Asn-D-Phe-Arg-Trp-Dab)-NH2]
255	22	89		≥ 20	5	5	0.85	82						RKNFRXD (HELM PEPTIDE1{[ac].R.K.N.[dF].R.[O=C([C@H](Cc1ccc2ccccc2c1)N[*:1])[*:2]].D.[am]}$PEPTIDE1,PEPTIDE1,3:R3-8:R3$$$V2.0; SMILES CC(=O)N[C@@H](CCCNC(=N)N)C(=O)N[C@H]1CCCCNC(=O)C[C@@H](C(N)=O)NC(=O)[C@H](Cc2ccc3ccccc3c2)NC(=O)[C@H](CCCNC(=N)N)NC(=O)[C@@H](Cc2ccccc2)NC(=O)[C@H](CC(N)=O)NC1=O, also called peptide No. 162) [Ac-Arg-cyclo(Lys-Asn-D-Phe-Arg-Nal 2-Asp)-NH2]
240	14	91		≥ 20	5	5	0.189	97						Ac-RKN[dF]RWD-NH2 (lactam 2-7) [Ac-Arg-cyclo(Lys-Asn-D-Phe-Arg-Trp-Asp)-NH2]
			91						3	4	103			Ac-RDH[dF]RWK-NH2 (lactam 2-7, also called peptide No. 1) [Ac-Arg-cyclo(Asp-His-D-Phe-Arg-Trp-Lys)-NH2]
			98						133	673		340	17	Ac-RDQ[dF]RWK-NH2 (lactam 2-7, any difference is only in the drawings; also called peptide No. 32) [Ac-Arg-cyclo(Asp-Gln-D-Phe-Arg-Trp-Lys)-NH2]
155	13	85		≥ 20	6	6	0.413	91						Ac-REN[dF]RW[Orn]-NH2 (lactam 2-7, also called peptide No. 161) [Ac-Arg-cyclo(Glu-Asn-D-Phe-Arg-Trp-Orn)-NH2]
			42							323	1060			Ac-RDV[dF]RWK-NH2 (lactam 2-7, also called peptide No. 16) [Ac-Arg-cyclo(Asp-Val-D-Phe-Arg-Trp-Lys)-NH2]
		88			45	45	2	89						Ac-[dR]DQ[dF]RWK-NH2 (lactam 2-7, also called peptide No. 71) [Ac-D-Arg-cyclo(Asp-Gln-D-Phe-Arg-Trp-Lys)-NH2]
